Results published in publication doi:10.1101/2024.05.05.592584 (bioRxiv, 2024).

T1: SARS-CoV-2 HV.1 NTD (SARS-CoV-2 Omicron HV.1, strain)
T1 chain: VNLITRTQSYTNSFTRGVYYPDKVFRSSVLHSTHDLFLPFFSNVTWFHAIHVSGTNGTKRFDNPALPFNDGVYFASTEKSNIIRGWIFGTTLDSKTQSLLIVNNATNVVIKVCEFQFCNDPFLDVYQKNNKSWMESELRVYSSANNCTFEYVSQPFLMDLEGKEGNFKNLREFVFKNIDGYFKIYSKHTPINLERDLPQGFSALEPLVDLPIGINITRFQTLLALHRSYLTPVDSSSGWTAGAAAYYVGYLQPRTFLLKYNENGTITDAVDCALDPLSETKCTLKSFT

B1: C1533 IgG (antibody, V domains shown)
VH: QVQLVQSGAEVKKPGSSVKVSCKTSGVIFSRNAFSWVRQAPGQGLEWMGRIIPFLDVTNSAQEFQGRVTLNADKSTSTVYMELSSLRSEDTAIYYCARHNGDPYDFWSGYNTWAGGLDVWGQGTTVTVSS
VL: QSVLTQPPSASGTPGQRVTISCSGSGSNIGSNAVNWYQQLPGTAPKLLIYNQNQRPSGVPDRFSGSKSGTSASLAIGGLQSEDEADYYCATWDDNLSGLVFGGGTKLTVL
notes: copies: 2 + 2
B2: C1520 IgG (antibody, V domains shown)
VH: EVQLVESGGGLVQPGGSLRLACVASGFTFSIYEMNWVRQAPGKGLEWVSYITTSGHARYNADSVKGRFTISRDNSKNSFYLQMNSLRAEDTAIYYCARPQYHYYDTSTYHSYGFDIWGQGTMVTVSS
VL: QLVLTQSPSASASLGASVNLTCTLSSGHNSYAIAWHQQQPEKGPRYLMSLNSDGSHTKGDGIPDRFSGSSSGAERFLTISSLQSEDEADYYCQTWDTGIRVFGGGTRLTVL
notes: copies: 2 + 2
B3: C1596 IgG (antibody, V domains shown)
VH: QVQLVQSGAEVKKPGSSVKVSCKASGGTFINYAVTWVRQAPGQGLEWMGGIIPILGIPNYAQKFQGRVTITADKSTSTAYMELSSLRSEDTAVYYCARVPQAGAAQGHYYYYYGMDVWGQGTTVTVSS
VL: not shown
notes: copies: 2 + 2
B4: C1596 Fab (Fab, V domains shown)
VH: QVQLVQSGAEVKKPGSSVKVSCKASGGTFINYAVTWVRQAPGQGLEWMGGIIPILGIPNYAQKFQGRVTITADKSTSTAYMELSSLRSEDTAVYYCARVPQAGAAQGHYYYYYGMDVWGQGTTVTVSS
VL: not shown
B5: C952 IgG (antibody, V domains shown)
VH: EVQLVQSGAEVKKPGESLTISCKDSGNSFTIYWIGWVRQMPGKGLEWMGMIYPGDSGTRYSPSFEGQVTISADESINTAYLQWRSLKASDTAMYYCVRGIAVDWYFDLWGRGTLVTVSS
VL: QSVLTQPPSVSGAPGQRVTISCTGSSSNIGAGFDVHWYQQLPGTAPKLLIYGNNNRPSGVPDRFSGSKSATSASLAITGLQAEDEADYYCQSSDSSLSGLYVFGTGTNVIVL
notes: copies: 2 + 2

Columns and labels:
Experiment in all cases: BLI
Conditions in all cases: both partners purified
[1] = molecular target: SARS-CoV-2 Wuhan-Hu-1 NTD (SARS-CoV-2 Wuhan-Hu-1, UniProt P0DTC2)
SARS-CoV-2 HV.1 NTD = molecular target: T1, SARS-CoV-2 HV.1 NTD
[2] = molecular target: SARS-CoV-2 RBD-SD1 protein (SARS-CoV-2, Wuhan-Hu-1 lineage (GenBank …, UniProt A0A679G9E9))
[3] = molecular target: SARS-CoV-2 Wuhan-Hu-1 NTD protein (SARS-CoV-2 Wuhan-Hu-1, UniProt P0DTC2)
SARS-CoV-2 RBD protein = SARS-CoV-2 RBD protein (SARS-CoV-2 Wuhan-Hu-1, UniProt P0DTC2)
[4] = molecular target: SARS-CoV-2 Wuhan-Hu-1 RBD (SARS-CoV-2 Wuhan-Hu-1, UniProt P0DTC2)

| Binder | Kd [1] [nM] | koff [1] [s⁻¹] | kon [1] [M⁻¹ s⁻¹] | other results |
| --- | --- | --- | --- | --- |
| B1 | 17.1 | 0.000547 | 32000 |  |
| B2 | 24.8 | 0.000393 | 15900 |  |
| B3 | 125 |  |  | Kd (SARS-CoV-2 HV.1 NTD): 553 nM |
| B4 |  |  |  | binding result [2]: no binding; Kd [3]: 160 nM; binding result (SARS-CoV-2 RBD protein): no binding |
| B5 |  |  |  | Kd [4]: 6.35 nM; koff [4]: 0.00176 s⁻¹; kon [4]: 278000 M⁻¹ s⁻¹ |
